Here are results for 1 molecule from article PMC3958310.

The target of the assay is DENV1 envelope (E) protein, strain Western Pacific 74, on the virus surface (dengue virus serotype 1, strain Western Pacific 74).

B1: Fab fragment of HMAb 1F4 (Fab, V domains shown)
VH: QVQLVESGGGVVQPGRSLRLSCAASGFTFSAYGMHWVRQAPGKGLEWVAIIWYDGSNKYYADSVKGRFTISRDNSKNTLHLQMNSLRAEDTAIYYCARDKNPGTKPYYHYGMDVWGQGTTVTVSS
VL: QSVLTQPPSVSEAPRQRVTISCSGSSSNIGNNAVNWYQQFPGKAPKLLIYYDDLLPSGVSDRFSGSKSGTSASLAISGLQSEDEAYYYCAAWDDSLIGVVFGGGTKLTVL
In turn, B1 registered a neutralisation of DENV1 (Western Pacific 74) in U937 cells expressing DC-SIGN, flow cytometry, Neut50 of 0.11 µg/mL.
